T1: CARD11, Q9BXL7
T1 sequence (Q9BXL7 662-765, limits assumed, looked up): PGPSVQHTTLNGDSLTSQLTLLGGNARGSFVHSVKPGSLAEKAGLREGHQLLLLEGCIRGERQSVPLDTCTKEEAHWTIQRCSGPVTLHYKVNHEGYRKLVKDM

T2: DFNB31_2, Q9P202
T2 sequence (Q9P202 274-371, limits assumed, looked up): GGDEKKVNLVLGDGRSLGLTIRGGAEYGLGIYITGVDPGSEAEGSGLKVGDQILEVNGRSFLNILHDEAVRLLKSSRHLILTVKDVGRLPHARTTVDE

T3: DFNB31_3, Q9P202
T3 sequence (Q9P202 811-907, limits assumed, looked up): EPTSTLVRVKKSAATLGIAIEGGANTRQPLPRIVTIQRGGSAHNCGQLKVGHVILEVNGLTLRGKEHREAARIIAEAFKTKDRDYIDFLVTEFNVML

T4: LIN7A, O14910
T4 sequence (O14910 103-200, limits assumed, looked up): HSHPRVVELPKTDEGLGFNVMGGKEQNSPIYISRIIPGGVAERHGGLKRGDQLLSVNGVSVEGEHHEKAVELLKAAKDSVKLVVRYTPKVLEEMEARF

T5: MPDZ_5, O75970
T5 sequence (O75970 695-796, limits assumed, looked up): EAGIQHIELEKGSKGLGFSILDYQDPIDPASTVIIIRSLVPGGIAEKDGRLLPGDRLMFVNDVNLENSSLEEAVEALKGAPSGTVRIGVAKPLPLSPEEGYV

T6: MPP6, Q9NZW5
T6 sequence (Q9NZW5 125-219, limits assumed, looked up): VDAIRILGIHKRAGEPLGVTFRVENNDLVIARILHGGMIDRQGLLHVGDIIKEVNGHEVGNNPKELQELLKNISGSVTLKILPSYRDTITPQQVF

T7: NHERF3_1, Q5T2W1
T7 sequence (Q5T2W1 4-100, limits assumed, looked up): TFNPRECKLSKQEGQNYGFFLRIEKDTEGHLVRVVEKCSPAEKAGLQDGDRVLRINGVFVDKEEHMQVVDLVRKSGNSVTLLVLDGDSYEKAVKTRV

T8: NHERF3_4, Q5T2W1
T8 sequence (Q5T2W1 373-468, limits assumed, looked up): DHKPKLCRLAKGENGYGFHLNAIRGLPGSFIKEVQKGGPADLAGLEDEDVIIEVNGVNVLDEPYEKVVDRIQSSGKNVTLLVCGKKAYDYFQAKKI

T9: PCLO, Q9Y6V0
T9 sequence (Q9Y6V0 4491-4600, limits assumed, looked up): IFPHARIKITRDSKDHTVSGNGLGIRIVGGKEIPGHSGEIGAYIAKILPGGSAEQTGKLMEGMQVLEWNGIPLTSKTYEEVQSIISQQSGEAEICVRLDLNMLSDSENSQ

T10: PDZD2_2, O15018
T10 sequence (O15018 329-429, limits assumed, looked up): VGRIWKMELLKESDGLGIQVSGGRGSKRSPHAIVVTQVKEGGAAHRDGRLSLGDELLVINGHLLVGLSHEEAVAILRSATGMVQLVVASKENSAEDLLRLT

T11: SIPA1L2, Q9P2F8
T11 sequence (Q9P2F8 945-1036, limits assumed, looked up): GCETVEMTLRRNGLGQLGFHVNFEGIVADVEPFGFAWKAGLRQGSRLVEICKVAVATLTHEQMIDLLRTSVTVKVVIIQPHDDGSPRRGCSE

T12: SNTA1, Q13424
T12 sequence (Q13424 82-180, limits assumed, looked up): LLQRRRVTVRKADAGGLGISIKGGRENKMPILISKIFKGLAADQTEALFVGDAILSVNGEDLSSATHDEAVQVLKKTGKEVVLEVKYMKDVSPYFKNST


target: T1, CARD11, Q9BXL7; experiment: holdup assay; design: key: below the threshold = too weak to quantify, mostly under pKd 3.1 to 4; conditions: plain residues with an end cap or a label only (N-terminal biotin on a linker: ado-ado)

Row | pKd | Binder
1 | below the threshold | VNKSKLLTDV [KCNA1, Q09470]
2 | below the threshold | NLSIEKETKL [ASNSD1, Q9NWL6]

target: T2, DFNB31_2, Q9P202; experiment: holdup assay; design: key: below the threshold = too weak to quantify, mostly under pKd 3.1 to 4; conditions: plain residues with an end cap or a label only (N-terminal biotin on a linker: ado-ado)

Row | pKd | Binder
3 | below the threshold | VNKSKLLTDV [KCNA1, Q09470]
4 | 3.94 | NLSIEKETKL [ASNSD1, Q9NWL6]

target: T3, DFNB31_3, Q9P202; experiment: holdup assay; design: key: below the threshold = too weak to quantify, mostly under pKd 3.1 to 4; conditions: plain residues with an end cap or a label only (N-terminal biotin on a linker: ado-ado)

Row | pKd | Binder
5 | 3.56 | VNKSKLLTDV [KCNA1, Q09470]
6 | 3.52 | NLSIEKETKL [ASNSD1, Q9NWL6]

target: DLG1_1, Q12959; experiment: holdup assay; design: key: below the threshold = too weak to quantify, mostly under pKd 3.1 to 4; conditions: plain residues with an end cap or a label only (N-terminal biotin on a linker: ado-ado)

Row | pKd | Binder
7 | 4.11 | VNKSKLLTDV [KCNA1, Q09470]
8 | below the threshold | NLSIEKETKL [ASNSD1, Q9NWL6]

target: DLG1_2, Q12959; experiment: holdup assay; design: key: below the threshold = too weak to quantify, mostly under pKd 3.1 to 4; conditions: plain residues with an end cap or a label only (N-terminal biotin on a linker: ado-ado)

Row | pKd | Binder
9 | 4.55 | VNKSKLLTDV [KCNA1, Q09470]
10 | 3.93 | NLSIEKETKL [ASNSD1, Q9NWL6]

target: DLG2_3, Q15700; experiment: holdup assay; design: key: below the threshold = too weak to quantify, mostly under pKd 3.1 to 4; conditions: plain residues with an end cap or a label only (N-terminal biotin on a linker: ado-ado)

Row | pKd | Binder
11 | 3.57 | VNKSKLLTDV [KCNA1, Q09470]
12 | 3.77 | NLSIEKETKL [ASNSD1, Q9NWL6]

target: FRMPD2_2, Q68DX3; experiment: holdup assay; design: key: below the threshold = too weak to quantify, mostly under pKd 3.1 to 4; conditions: plain residues with an end cap or a label only (N-terminal biotin on a linker: ado-ado)
Sequence (Q68DX3 944-1038): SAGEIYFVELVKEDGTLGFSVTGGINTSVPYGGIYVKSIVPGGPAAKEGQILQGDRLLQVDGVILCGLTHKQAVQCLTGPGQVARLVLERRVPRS

Row | pKd | Binder
13 | below the threshold | VNKSKLLTDV [KCNA1, Q09470]
14 | below the threshold | NLSIEKETKL [ASNSD1, Q9NWL6]

target: FRMPD2_3, Q68DX3; experiment: holdup assay; design: key: below the threshold = too weak to quantify, mostly under pKd 3.1 to 4; conditions: plain residues with an end cap or a label only (N-terminal biotin on a linker: ado-ado)
Sequence (Q68DX3 1073-1166): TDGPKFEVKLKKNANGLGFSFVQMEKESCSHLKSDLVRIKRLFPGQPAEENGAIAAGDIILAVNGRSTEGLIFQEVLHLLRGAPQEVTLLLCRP

Row | pKd | Binder
15 | below the threshold | VNKSKLLTDV [KCNA1, Q09470]
16 | below the threshold | NLSIEKETKL [ASNSD1, Q9NWL6]

target: GIPC2, Q8TF65; experiment: holdup assay; design: key: below the threshold = too weak to quantify, mostly under pKd 3.1 to 4; conditions: plain residues with an end cap or a label only (N-terminal biotin on a linker: ado-ado)
Sequence (Q8TF65 112-203): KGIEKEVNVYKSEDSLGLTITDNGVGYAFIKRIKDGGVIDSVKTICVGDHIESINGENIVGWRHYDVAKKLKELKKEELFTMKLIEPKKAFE

Row | pKd | Binder
17 | below the threshold | VNKSKLLTDV [KCNA1, Q09470]
18 | below the threshold | NLSIEKETKL [ASNSD1, Q9NWL6]

target: GRASP, Q7Z6J2; experiment: holdup assay; design: key: below the threshold = too weak to quantify, mostly under pKd 3.1 to 4; conditions: plain residues with an end cap or a label only (N-terminal biotin on a linker: ado-ado)
Sequence (Q7Z6J2 96-193): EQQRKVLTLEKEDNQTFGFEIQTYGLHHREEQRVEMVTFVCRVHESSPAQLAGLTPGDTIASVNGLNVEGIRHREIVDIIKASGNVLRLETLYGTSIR

Row | pKd | Binder
19 | below the threshold | VNKSKLLTDV [KCNA1, Q09470]
20 | below the threshold | NLSIEKETKL [ASNSD1, Q9NWL6]

target: GRID2IP_2, A4D2P6; experiment: holdup assay; design: key: below the threshold = too weak to quantify, mostly under pKd 3.1 to 4; conditions: plain residues with an end cap or a label only (N-terminal biotin on a linker: ado-ado)
Sequence (A4D2P6 272-370): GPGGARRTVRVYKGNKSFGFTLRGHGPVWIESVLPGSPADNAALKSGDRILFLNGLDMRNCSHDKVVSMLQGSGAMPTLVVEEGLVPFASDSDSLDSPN

Row | pKd | Binder
21 | 3.71 | VNKSKLLTDV [KCNA1, Q09470]
22 | 4.26 | NLSIEKETKL [ASNSD1, Q9NWL6]

target: GRIP2_5, Q9C0E4; experiment: holdup assay; design: key: below the threshold = too weak to quantify, mostly under pKd 3.1 to 4; conditions: plain residues with an end cap or a label only (N-terminal biotin on a linker: ado-ado)
Sequence (Q9C0E4 544-642): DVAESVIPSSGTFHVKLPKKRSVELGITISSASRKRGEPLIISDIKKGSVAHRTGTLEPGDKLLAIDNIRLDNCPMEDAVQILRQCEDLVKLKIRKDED

Row | pKd | Binder
23 | below the threshold | VNKSKLLTDV [KCNA1, Q09470]
24 | below the threshold | NLSIEKETKL [ASNSD1, Q9NWL6]

target: GRIP2_6, Q9C0E4; experiment: holdup assay; design: key: below the threshold = too weak to quantify, mostly under pKd 3.1 to 4; conditions: plain residues with an end cap or a label only (N-terminal biotin on a linker: ado-ado)
Sequence (Q9C0E4 648-740): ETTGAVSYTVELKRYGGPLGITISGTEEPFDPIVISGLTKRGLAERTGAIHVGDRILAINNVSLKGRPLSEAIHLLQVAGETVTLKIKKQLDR

Row | pKd | Binder
25 | below the threshold | VNKSKLLTDV [KCNA1, Q09470]
26 | below the threshold | NLSIEKETKL [ASNSD1, Q9NWL6]

target: IL16_3, Q14005; experiment: holdup assay; design: key: below the threshold = too weak to quantify, mostly under pKd 3.1 to 4; conditions: plain residues with an end cap or a label only (N-terminal biotin on a linker: ado-ado)
Sequence (Q14005 1107-1207): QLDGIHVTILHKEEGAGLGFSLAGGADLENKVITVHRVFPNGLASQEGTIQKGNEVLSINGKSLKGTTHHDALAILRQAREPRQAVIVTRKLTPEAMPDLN

Row | pKd | Binder
27 | below the threshold | VNKSKLLTDV [KCNA1, Q09470]
28 | below the threshold | NLSIEKETKL [ASNSD1, Q9NWL6]

target: T4, LIN7A, O14910; experiment: holdup assay; design: key: below the threshold = too weak to quantify, mostly under pKd 3.1 to 4; conditions: plain residues with an end cap or a label only (N-terminal biotin on a linker: ado-ado)

Row | pKd | Binder
29 | below the threshold | VNKSKLLTDV [KCNA1, Q09470]
30 | below the threshold | NLSIEKETKL [ASNSD1, Q9NWL6]

target: MAGI2_2, Q86UL8; experiment: holdup assay; design: key: below the threshold = too weak to quantify, mostly under pKd 3.1 to 4; conditions: plain residues with an end cap or a label only (N-terminal biotin on a linker: ado-ado)
Sequence (Q86UL8 410-522): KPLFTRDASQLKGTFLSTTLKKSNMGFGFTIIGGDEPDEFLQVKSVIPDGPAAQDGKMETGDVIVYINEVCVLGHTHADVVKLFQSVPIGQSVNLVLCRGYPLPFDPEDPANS

Row | pKd | Binder
31 | 4.06 | VNKSKLLTDV [KCNA1, Q09470]
32 | below the threshold | NLSIEKETKL [ASNSD1, Q9NWL6]

target: MAST1, Q9Y2H9; experiment: holdup assay; design: key: below the threshold = too weak to quantify, mostly under pKd 3.1 to 4; conditions: plain residues with an end cap or a label only (N-terminal biotin on a linker: ado-ado)
Sequence (Q9Y2H9 962-1065): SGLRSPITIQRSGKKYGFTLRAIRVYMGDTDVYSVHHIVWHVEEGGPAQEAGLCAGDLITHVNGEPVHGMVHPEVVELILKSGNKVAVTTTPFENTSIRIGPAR

Row | pKd | Binder
33 | 4.3 | VNKSKLLTDV [KCNA1, Q09470]
34 | 4.73 | NLSIEKETKL [ASNSD1, Q9NWL6]

target: T5, MPDZ_5, O75970; experiment: holdup assay; design: key: below the threshold = too weak to quantify, mostly under pKd 3.1 to 4; conditions: plain residues with an end cap or a label only (N-terminal biotin on a linker: ado-ado)

Row | pKd | Binder
35 | below the threshold | VNKSKLLTDV [KCNA1, Q09470]
36 | below the threshold | NLSIEKETKL [ASNSD1, Q9NWL6]

target: T6, MPP6, Q9NZW5; experiment: holdup assay; design: key: below the threshold = too weak to quantify, mostly under pKd 3.1 to 4; conditions: plain residues with an end cap or a label only (N-terminal biotin on a linker: ado-ado)

Row | pKd | Binder
37 | below the threshold | VNKSKLLTDV [KCNA1, Q09470]
38 | below the threshold | NLSIEKETKL [ASNSD1, Q9NWL6]

target: NHERF2_2, Q15599; experiment: holdup assay; design: key: below the threshold = too weak to quantify, mostly under pKd 3.1 to 4; conditions: plain residues with an end cap or a label only (N-terminal biotin on a linker: ado-ado)
Sequence (Q15599 142-238): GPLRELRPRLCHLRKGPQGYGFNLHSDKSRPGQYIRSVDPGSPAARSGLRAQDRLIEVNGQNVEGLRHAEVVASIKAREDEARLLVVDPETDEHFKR

Row | pKd | Binder
39 | below the threshold | VNKSKLLTDV [KCNA1, Q09470]
40 | 4.76 | NLSIEKETKL [ASNSD1, Q9NWL6]

target: T7, NHERF3_1, Q5T2W1; experiment: holdup assay; design: key: below the threshold = too weak to quantify, mostly under pKd 3.1 to 4; conditions: plain residues with an end cap or a label only (N-terminal biotin on a linker: ado-ado)

Row | pKd | Binder
41 | below the threshold | VNKSKLLTDV [KCNA1, Q09470]
42 | 6.04 | NLSIEKETKL [ASNSD1, Q9NWL6]

target: T8, NHERF3_4, Q5T2W1; experiment: holdup assay; design: key: below the threshold = too weak to quantify, mostly under pKd 3.1 to 4; conditions: plain residues with an end cap or a label only (N-terminal biotin on a linker: ado-ado)

Row | pKd | Binder
43 | below the threshold | VNKSKLLTDV [KCNA1, Q09470]
44 | 4.13 | NLSIEKETKL [ASNSD1, Q9NWL6]

target: T9, PCLO, Q9Y6V0; experiment: holdup assay; design: key: below the threshold = too weak to quantify, mostly under pKd 3.1 to 4; conditions: plain residues with an end cap or a label only (N-terminal biotin on a linker: ado-ado)

Row | pKd | Binder
45 | below the threshold | VNKSKLLTDV [KCNA1, Q09470]
46 | below the threshold | NLSIEKETKL [ASNSD1, Q9NWL6]

target: T10, PDZD2_2, O15018; experiment: holdup assay; design: key: below the threshold = too weak to quantify, mostly under pKd 3.1 to 4; conditions: plain residues with an end cap or a label only (N-terminal biotin on a linker: ado-ado)

Row | pKd | Binder
47 | 4.07 | VNKSKLLTDV [KCNA1, Q09470]
48 | 3.83 | NLSIEKETKL [ASNSD1, Q9NWL6]

target: T11, SIPA1L2, Q9P2F8; experiment: holdup assay; design: key: below the threshold = too weak to quantify, mostly under pKd 3.1 to 4; conditions: plain residues with an end cap or a label only (N-terminal biotin on a linker: ado-ado)

Row | pKd | Binder
49 | below the threshold | VNKSKLLTDV [KCNA1, Q09470]
50 | below the threshold | NLSIEKETKL [ASNSD1, Q9NWL6]

target: T12, SNTA1, Q13424; experiment: holdup assay; design: key: below the threshold = too weak to quantify, mostly under pKd 3.1 to 4; conditions: plain residues with an end cap or a label only (N-terminal biotin on a linker: ado-ado)

Row | pKd | Binder
51 | below the threshold | VNKSKLLTDV [KCNA1, Q09470]
52 | 4.9 | NLSIEKETKL [ASNSD1, Q9NWL6]

From paper PMC9482650, “Quantitative fragmentomics allow affinity mapping of interactomes” (Nature Communications, 2022)
